B1: Histone-lysine N-methyltransferase PRDM16 (Homo sapiens), Q9HAZ2-4 (parent)
chain: MCQISEQIYYKVIKDIEPGEELLVHVKEGVYPLGTVPPGLDEEPTFRCDECDELFQSKLDLRRHKKYTCGSVGAALYEGLAEELKPEGLGGGSGQAHECKDCERMFPNKYSLEQHMVIHTEEREYKCDQCPKAFNWKSNLIRHQMSHDSGKRFECENCVKVFTDPSNLQRHIRSQHVGARAHACPDCGKTFATSSGLKQHKHIHSTVKPFICEVCHKSYTQFSNLCRHKRMHADCRTQIKCKDCGQMFSTTSSLNKHRRFCEGKNHYTPGGIFAPGLPLTPSPMMDKAKPSPSLNHASLGFNEYFPSRPHPGSLPFSTAPPTFPALTPGFPGIFPPSLYPRPPLLPPTSLLKSPLNHTQDAKLPSPLGNPALPLVSAVSNSSQGTTAAAGPEEKFESRLEDSCVEKLKTRSSDMSDGSDFEDVNTTTGTDLDTTTGTGSDLDSDVDSDPDKDKGKGKSAEGQPKFGGGLAPPGAPNSVAEVPVFYSQHSFFPPPDEQLLTATGAAGDSIKAIASIAEKYFGPGFMGMQEKKLGSLPYHSAFPFQFLPNFPHSLYPFTDRALAHNLLVKAEPKSPRDALKVGGPSAECPFDLTTKPKDVKPILPMPKGPSAPASGEEQPLDLSIGSRARASQNGGGREPRKNHVYGERKLGAGEGLPQVCPARMPQQPPLHYAKPSPFFMDPIYSRVEKRKVTDPVGALKEKYLRPSPLLFHPQMSAIETMTEKLESFAAMKADSGSSLQPLPHHPFNFRSPPPTLSDPILRKGKERYTCRYCGKIFPRSANLTRHLRTHTGEQPYRCKYCDRSFSISSNLQRHVRNIHNKEKPFKCHLCNRCFGQQTNLDRHLKKHEHENAPVSQHPGVLTNHLGTSASSPTSESDNHALLDEKEDSYFSEIRNFIANSEMNQASTRTEKRADMQIVDGSAQCPGLASEKQEDVEEEDDDDLEEDDEDSLAGKSQDDTVSPAPEPQAAYEDEEDEEPAASLAVGFDHTRRCAEDHEGGLLALEPMPTFGKGLDLRRAAEEAFEVKDVLNSTLDSEALKHTLCRQAKNQAYAMMLSLSEDTPLHTPSQGSLDAWLKVTGATSESGAFHPINHL

Key:
[1] = variants of: B1; conditions: with hdac2_chick HDAC2, P56519
[2] = variants of: B1; conditions: with ctbp2_mouse Ctbp2, P56546
[3] = variants of: B1; conditions: with ctbp2_mouse Ctbp2, P56546; remark: listed apart in the source

Sequence of hdac2_chick HDAC2, P56519 (P56519 whole entry): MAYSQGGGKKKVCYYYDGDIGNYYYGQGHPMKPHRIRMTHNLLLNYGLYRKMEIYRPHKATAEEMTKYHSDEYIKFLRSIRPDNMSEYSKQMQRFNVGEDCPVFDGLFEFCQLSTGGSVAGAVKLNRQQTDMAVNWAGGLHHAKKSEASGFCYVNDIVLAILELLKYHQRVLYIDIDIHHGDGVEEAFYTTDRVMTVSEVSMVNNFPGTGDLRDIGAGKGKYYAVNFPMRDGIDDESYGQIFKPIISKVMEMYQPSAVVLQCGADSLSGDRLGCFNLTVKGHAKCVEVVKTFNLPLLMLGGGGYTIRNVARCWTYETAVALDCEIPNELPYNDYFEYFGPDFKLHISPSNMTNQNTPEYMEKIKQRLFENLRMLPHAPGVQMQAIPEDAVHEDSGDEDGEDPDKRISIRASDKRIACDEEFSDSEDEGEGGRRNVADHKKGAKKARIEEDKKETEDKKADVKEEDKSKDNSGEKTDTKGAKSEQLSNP
Sequence of ctbp2_mouse Ctbp2, P56546 (P56546 whole entry): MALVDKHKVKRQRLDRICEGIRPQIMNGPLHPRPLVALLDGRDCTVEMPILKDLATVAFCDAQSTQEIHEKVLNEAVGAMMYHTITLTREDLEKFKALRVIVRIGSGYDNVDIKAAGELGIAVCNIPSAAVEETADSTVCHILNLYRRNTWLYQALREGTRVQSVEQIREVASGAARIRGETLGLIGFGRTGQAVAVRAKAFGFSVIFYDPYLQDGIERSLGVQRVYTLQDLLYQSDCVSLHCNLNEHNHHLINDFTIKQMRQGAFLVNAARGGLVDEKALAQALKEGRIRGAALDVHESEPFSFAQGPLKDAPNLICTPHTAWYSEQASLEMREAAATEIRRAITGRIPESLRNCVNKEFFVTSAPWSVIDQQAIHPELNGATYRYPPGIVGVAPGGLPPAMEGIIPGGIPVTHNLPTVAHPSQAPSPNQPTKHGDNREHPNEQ

Row | effect of a mutation on the interaction [1] | effect of a mutation on the interaction [2] | effect of a mutation on the interaction [3] | Variant
1 | decreasing interaction |  |  | K568R;D590A;L591S;L619S;D620A
2 | decreasing interaction | disrupting interaction | disrupting interaction | D590A;L591S;D620A;L621S
3 | decreasing interaction |  |  | K568R
